Reference: patent US20100310640A1

T1: HLA-DR DRB4*0101 (human)
T1 chain 1: not shown
T1 chain 2: not shown

T2: HLA-DR DRB1*0401 (human)
T2 chain 1: not shown
T2 chain 2: not shown

T3: HLA-DR DRB1*1302 (human)
T3 chain 1: not shown
T3 chain 2: not shown

T4: HLA-DR DRB1*0404 (human)
T4 chain 1: not shown
T4 chain 2: not shown

T5: HLA-DR DRB1*0101 (human)
T5 chain 1: not shown
T5 chain 2: not shown

T6: HLA-DR DRB1*1101 (human)
T6 chain 1: not shown
T6 chain 2: not shown

T7: HLA-DR DRB1*0405 (human)
T7 chain 1: not shown
T7 chain 2: not shown

T8: HLA-DR DRB1*0701 (human)
T8 chain 1: not shown
T8 chain 2: not shown

T9: HLA-DR DRB5*0101 (human)
T9 chain 1: not shown
T9 chain 2: not shown


Molecular target: T1, HLA-DR DRB4*0101 (human)
Assay: radioligand inhibition, purified HLA-DR
Settings: remark: other sources report otherwise

Binder | IC50 [nM]
GARMPCAELVREPGC [Peptide 9019.0181] | 4700
SDSVILNVLYGPDAP [CEA.123 peptide 9019.0119 (position 226)] | 612
ICELHCPALVTYNTD [Her2/neu.263] | 441
GYVIGTQQATPGPAY [CEA.81 peptide 9019.0110] | 63
SPGLSAGATVGIMIG [CEA.680 peptide 9019.0144] | 2590
SSYLSGANLNLSCHS [CEA.603 peptide 9012.0137] | 42
INGIPQQHTQVLFIA [CEA.629 peptide 9019.0139] | 2700

Second part, the binder after the results:

IC50 [nM] | Binder
572 | AKGLQSLPTHDPSPL [Peptide 9019.0098]
87 | DNSIRPEELLQMELL [Cyclin D1.129]
12100 | TVGIMIGVLVGVALI [CEA.688 peptide 9019.05]
22 | FYTLHVIKSDLVNEE [CEA.119 peptide 9019.0114]
2290 | QYSWRINGIPQQHTQ [CEA.624 peptide 9019.0138]
281 | MRKIVATWMLEVCEE [Cyclin D1.56]

Molecular target: T2, HLA-DR DRB1*0401 (human)
Assay: radioligand inhibition, purified HLA-DR
Settings: remark: other sources report otherwise

Binder | IC50 [nM]
SDSVILNVLYGPDAP [CEA.123 peptide 9019.0119 (position 226)] | 255
ICELHCPALVTYNTD [Her2/neu.263] | 754
RHLYQGCQVVQGNLE [Her/neu.47] | 422
GYVIGTQQATPGPAY [CEA.81 peptide 9019.0110] | 31
SPGLSAGATVGIMIG [CEA.680 peptide 9019.0144] | 4190
NDRVLRAMLKAEETC [Cyclin D1.24 peptide 9019.0147] | 1960
GCQVVQGNLELTYLP [Her/neu.52] | 2740
SSYLSGANLNLSCHS [CEA.603 peptide 9012.0137] | 580
EPKKLRPPPARTPCQ [Peptide 9019.0188] | 806
INGIPQQHTQVLFIA [CEA.629 peptide 9019.0139] | 181
PERLAACGPPPVAPP [Peptide 9019.0179] | 5540

Second part, the binder after the results:

IC50 [nM] | Binder
791 | TMNMLGGGGSAGRKP [Peptide 9019.0184]
295 | APTISPLNTSYRSGE [CEA.239 peptide 9919.0121]
18 | IEALLESSLRQAQQN [Cyclin D1.251]
4680 | DNSIRPEELLQMELL [Cyclin D1.129]
5390 | LAALCRWGLLLALLP [Her/neu.3]
13000 | GPAYSGREIIYPNAS [CEA.92 peptide 9019.0111]
43 | QYSWRINGIPQQHTQ [CEA.624 peptide 9019.0138]
717 | ICTIDVYMIMVKCWM [Peptide 1622.04]
7950 | MRKIVATWMLEVCEE [Cyclin D1.56]

Molecular target: T3, HLA-DR DRB1*1302 (human)
Assay: radioligand inhibition, purified HLA-DR
Settings: remark: other sources report otherwise

Binder | IC50 [nM]
VCGIQNSVSANRSDP [CEA.570 peptide 9012.0135] | 921
SDSVILNVLYGPDAP [CEA.123 peptide 9019.0119 (position 226)] | 83
ICELHCPALVTYNTD [Her2/neu.263] | 3220
RHLYQGCQVVQGNLE [Her/neu.47] | 5040
GYVIGTQQATPGPAY [CEA.81 peptide 9019.0110] | 43
SPGLSAGATVGIMIG [CEA.680 peptide 9019.0144] | 80
SSYLSGANLNLSCHS [CEA.603 peptide 9012.0137] | 37

Next, values leading:

IC50 [nM] | Binder
6060 | TTPVTGASPGGLREL [Her2/neu.126]
3990 | AKGLQSLPTHDPSPL [Peptide 9019.0098]
5690 | TMNMLGGGGSAGRKP [Peptide 9019.0184]
125 | APTISPLNTSYRSGE [CEA.239 peptide 9919.0121]
286 | DANLLNDRVLRAMLK [Cyclin D1.19 peptide 9019.0146]
939 | DNSIRPEELLQMELL [Cyclin D1.129]
704 | LAALCRWGLLLALLP [Her/neu.3]
5070 | NPQLCYQDTILWKDI [Her2/neu.158]
5640 | TVGIMIGVLVGVALI [CEA.688 peptide 9019.05]
8860 | GVTVWELMTFGAKPY [Peptide 9019.0090]
10200 | EGPLPAARPAGATLE [Peptide 9019.0101]
154 | GPAYSGREIIYPNAS [CEA.92 peptide 9019.0111]
5770 | AEVLFRCPPCTPERL [Peptide 9019.0178]
356 | MRKIVATWMLEVCEE [Cyclin D1.56]

Molecular target: T4, HLA-DR DRB1*0404 (human)
Assay: radioligand inhibition, purified HLA-DR
Settings: remark: other sources report otherwise

Binder | IC50 [nM]
GARMPCAELVREPGC [Peptide 9019.0181] | 13100
VCGIQNSVSANRSDP [CEA.570 peptide 9012.0135] | 29
GYVIGTQQATPGPAY [CEA.81 peptide 9019.0110] | 34
KELAVFREKVTEQHR [Peptide 9019.0186] | 26

The remaining lines, values ahead:

IC50 [nM] | Binder
675 | TTPVTGASPGGLREL [Her2/neu.126]
29 | ERGPLEHLYSLHIPN [Peptide 9019.0190]
40 | APTISPLNTSYRSGE [CEA.239 peptide 9919.0121]
2800 | DNSIRPEELLQMELL [Cyclin D1.129]
4.1 | GVTVWELMTFGAKPY [Peptide 9019.0090]
169 | FYTLHVIKSDLVNEE [CEA.119 peptide 9019.0114]

Molecular target: T5, HLA-DR DRB1*0101 (human)
Assay: radioligand inhibition, purified HLA-DR
Settings: remark: other sources report otherwise

Binder | IC50 [nM]
GARMPCAELVREPGC [Peptide 9019.0181] | 164
VCGIQNSVSANRSDP [CEA.570 peptide 9012.0135] | 44
GYVIGTQQATPGPAY [CEA.81 peptide 9019.0110] | 21
VAAVQGLNLRSPNNF [Cyclin D1.209] | 44
KELAVFREKVTEQHR [Peptide 9019.0186] | 2040
SPGLSAGATVGIMIG [CEA.680 peptide 9019.0144] | 3510
GCQVVQGNLELTYLP [Her/neu.52] | 2600
SSYLSGANLNLSCHS [CEA.603 peptide 9012.0137] | 40
INGIPQQHTQVLFIA [CEA.629 peptide 9019.0139] | 682
PERLAACGPPPVAPP [Peptide 9019.0179] | 28

Results, then the binder that gave them:

IC50 [nM] | Binder
992 | TTPVTGASPGGLREL [Her2/neu.126]
7.7 | ERGPLEHLYSLHIPN [Peptide 9019.0190]
149 | AKGLQSLPTHDPSPL [Peptide 9019.0098]
1020 | TMNMLGGGGSAGRKP [Peptide 9019.0184]
2430 | APTISPLNTSYRSGE [CEA.239 peptide 9919.0121]
1460 | DANLLNDRVLRAMLK [Cyclin D1.19 peptide 9019.0146]
2610 | IEALLESSLRQAQQN [Cyclin D1.251]
4550 | DNSIRPEELLQMELL [Cyclin D1.129]
2040 | LAALCRWGLLLALLP [Her/neu.3]
6160 | PEYVNQPDVRPQPPS [Peptide 9019.0100]
3650 | NPQLCYQDTILWKDI [Her2/neu.158]
384 | TVGIMIGVLVGVALI [CEA.688 peptide 9019.05]
40 | GVTVWELMTFGAKPY [Peptide 9019.0090]
17300 | EGPLPAARPAGATLE [Peptide 9019.0101]
9440 | GPAYSGREIIYPNAS [CEA.92 peptide 9019.0111]
1280 | AEVLFRCPPCTPERL [Peptide 9019.0178]
472 | QYSWRINGIPQQHTQ [CEA.624 peptide 9019.0138]
764 | MRKIVATWMLEVCEE [Cyclin D1.56]

Molecular target: T6, HLA-DR DRB1*1101 (human)
Assay: radioligand inhibition, purified HLA-DR
Settings: remark: other sources report otherwise

IC50 [nM] | Binder
6810 | AKGLQSLPTHDPSPL [Peptide 9019.0098]
9210 | SDSVILNVLYGPDAP [CEA.123 peptide 9019.0119 (position 226)]
151 | QYSWRINGIPQQHTQ [CEA.624 peptide 9019.0138]

Molecular target: T7, HLA-DR DRB1*0405 (human)
Assay: radioligand inhibition, purified HLA-DR
Settings: remark: other sources report otherwise

Binder | IC50 [nM]
VCGIQNSVSANRSDP [CEA.570 peptide 9012.0135] | 1550
SSYLSGANLNLSCHS [CEA.603 peptide 9012.0137] | 7820
INGIPQQHTQVLFIA [CEA.629 peptide 9019.0139] | 942

The remaining lines, values ahead:

IC50 [nM] | Binder
13200 | TTPVTGASPGGLREL [Her2/neu.126]
110 | ERGPLEHLYSLHIPN [Peptide 9019.0190]
3860 | AKGLQSLPTHDPSPL [Peptide 9019.0098]
5990 | APTISPLNTSYRSGE [CEA.239 peptide 9919.0121]
16500 | DNSIRPEELLQMELL [Cyclin D1.129]
2110 | GVTVWELMTFGAKPY [Peptide 9019.0090]
41 | FYTLHVIKSDLVNEE [CEA.119 peptide 9019.0114]
311 | QYSWRINGIPQQHTQ [CEA.624 peptide 9019.0138]
955 | ICTIDVYMIMVKCWM [Peptide 1622.04]

Molecular target: T8, HLA-DR DRB1*0701 (human)
Assay: radioligand inhibition, purified HLA-DR
Settings: remark: other sources report otherwise

Binder | IC50 [nM]
SDSVILNVLYGPDAP [CEA.123 peptide 9019.0119 (position 226)] | 5240
RHLYQGCQVVQGNLE [Her/neu.47] | 4940
GYVIGTQQATPGPAY [CEA.81 peptide 9019.0110] | 1700
SPGLSAGATVGIMIG [CEA.680 peptide 9019.0144] | 92
GCQVVQGNLELTYLP [Her/neu.52] | 1970
INGIPQQHTQVLFIA [CEA.629 peptide 9019.0139] | 31

Now from value to binder:

IC50 [nM] | Binder
18 | ERGPLEHLYSLHIPN [Peptide 9019.0190]
4460 | AKGLQSLPTHDPSPL [Peptide 9019.0098]
6180 | TMNMLGGGGSAGRKP [Peptide 9019.0184]
10600 | APTISPLNTSYRSGE [CEA.239 peptide 9919.0121]
6650 | DNSIRPEELLQMELL [Cyclin D1.129]
8000 | LAALCRWGLLLALLP [Her/neu.3]
4450 | TVGIMIGVLVGVALI [CEA.688 peptide 9019.05]
7460 | EGPLPAARPAGATLE [Peptide 9019.0101]
5260 | GPAYSGREIIYPNAS [CEA.92 peptide 9019.0111]
56 | FYTLHVIKSDLVNEE [CEA.119 peptide 9019.0114]
16000 | AEVLFRCPPCTPERL [Peptide 9019.0178]
249 | MRKIVATWMLEVCEE [Cyclin D1.56]

Molecular target: T9, HLA-DR DRB5*0101 (human)
Assay: radioligand inhibition, purified HLA-DR
Settings: remark: other sources report otherwise

Binder | IC50 [nM]
VCGIQNSVSANRSDP [CEA.570 peptide 9012.0135] | 36
ICELHCPALVTYNTD [Her2/neu.263] | 2810
GYVIGTQQATPGPAY [CEA.81 peptide 9019.0110] | 10200
SSYLSGANLNLSCHS [CEA.603 peptide 9012.0137] | 14100

Results, then the binder that gave them:

IC50 [nM] | Binder
3000 | TTPVTGASPGGLREL [Her2/neu.126]
4000 | ERGPLEHLYSLHIPN [Peptide 9019.0190]
384 | TVGIMIGVLVGVALI [CEA.688 peptide 9019.05]
4500 | FYTLHVIKSDLVNEE [CEA.119 peptide 9019.0114]
17000 | MRKIVATWMLEVCEE [Cyclin D1.56]
